These results are taken from patent publication US20250147051A1, “METHOD FOR DETECTING A TAU PROTEIN IN A SALIVA SAMPLE” (GTINVENT LIMITED, priority 2022, published 2025).

For one experiment, the system named is tau. Briefly: Western blot of mouse brain homogenates (WT, L66+/+, L1+/+). The settings on record: 20 μg brain homogenate protein, 5-month-old WT, L1+/+ mice. On the procedure:
Protein equivalent to 20 μg from each brain extract was separated using 4-20% bis-tris gels and run in 1×MES buffer. […] A clear band is visible in the lanes containing L66^+/+ samples, but no other bands are detectable (WT or L1^+/+). […] Once again, a band having relative mobility of 65 kDa is visible in the L66 sample with no other reactive bands present.
This band most likely corresponds to endogenous mouse tau which is of a similar size. In the L66^+/+ samples, a second band running at approximately 68 kDa is also detected. The presence of numerous other bands indicates proteolytic truncation of tau within brain homogenates.
(In general: In western blotting, separated proteins are transferred to a membrane and probed.)

The next experiment has as its system core region tau. Briefly: S1D12 immunotherapy 6-week repeat-dose mouse study, plasma tau by CA4-S1G2 core-core Simoa assay. Format: in vivo. On the procedure: A total of 12 wildtype, 12 Line 1 and 12 Line 66 female mice were used in this study—Line 1 and Line 66 are transgenic mouse models of tauopathy (Melis et al., 2015). Animals were 2 months old at the beginning of the study. Mice of each genotype were injected intraperitoneally (i.p.) with either vehicle or S1D12 mAb (30 mg/kg), once per week, for six consecutive weeks.
Seven days post final dose, cardiac puncture blood sampling was performed. mice were anaesthetised using an overdose of sodium pentobarbital (i.p.) and blood was collected via cardiac puncture through a Plastipak syringe pre-rinsed with heparinised saline (10 U/mL) and transferred into a plastic vial containing lithium heparin anticoagulant. Blood samples were centrifuged to obtain plasma at 2,000×g for 5 min at 6° C.
In order to monitor the ‘treatment effect’ of S1D12 mAb, plasma tau of vehicle control and antibody treated L66^+/+ mice were assessed via a core-core homebrew Simoa® assay to investigate changes in core tau pools in these mice.

Another experiment has as its target dGA (Homo sapiens, UniProt P10636). As to the kind of experiment: Biacore X100 SPR binding kinetics of anti-tau scAbs (scAb captured via HuCk), analyte dGA. The conditions noted are these: lead scAbs. On the procedure:
(§1) Surface plasmon resonance (SPR) is widely regarded as the gold standard for real time measurement of protein-protein interactions such as antibody binding. All SPR experiments were carried out using a Biacore X100 machine and HBS EP+ running buffer (GE Healthcare). A ‘capture’ method was followed for affinity measurements, where an anti-human constant kappa chain (HuCk) antibody was conjugated to the surface of a CM5 sensor chip using an amine coupling kit and scAb molecules were immobilised via their HuCk domain. Amine coupling is a very common approach for immobilising the ligand to the chip surface. The chip surface has a dextran matrix derivatised with carboxyl groups, which after activation with N-hydroxysuccinimide (NHS) and 1-ethyl-3-(3-dimethylaminopropyl) carbodiimide (EDC), form reactive succinimide esters which allows the covalent capturing of the ligand via any available primary amine groups (e.g. Lysine) on the ligand (in this case anti-HuCk antibody). The capture antibody was diluted 1/100 in 10 mM Sodium acetate buffer pH 5.0 and passed over the activated chip surface for a period of at least 420 s. Final ligand immobilisation levels over 12,000 RU were deemed to be satisfactory.
(§2) Following immobilisation, the level of each scAb to be captured was identified using the standard SPR equation with a theoretical RMax of 100 RU. Analyte MW refers to the molecular weight of hT40 or dGA/dGAE molecules, while ligand MW refers to the molecular weight of the scAbs tested. RLis the desired capture level and S refers to the stoichiometric ratio:
(§3) The scAb to be tested was added only to flow cell 2 so that flow cell 1 could act as a control to subtract any interaction with the analyte and the chip surface. Both single and multi-cycle runs were utilised using wizards developed in the Biacore X100 control software which are both accepted methods of kinetic analysis (Karlsson, R., et al. Analyzing a kinetic titration series using affinity biosensors (2006) Analytical Biochemistry 349:136-47). The multi-cycle protocol was as follows-Three start-up cycles composed of an initial capture, to the desired level, of the scAb to be tested was performed followed by a 30 s injection of glycine buffer pH 2.0 after each cycle to regenerate the chip surface. The regeneration step removed any captured scAb whilst leaving the capture antibody intact and able to repeat the capture for the next cycle. Following three start-up cycles increasing concentrations (0.15625 nM-100 nM) of the target to be tested were added to the chip surface after the desired scAb capture. The target was added for a 120 s association period and 420 s dissociation period followed by another regeneration, 30 s injection of glycine buffer pH 2.0 in between each cycle.
The single cycle kinetics protocol was similar and utilised the same level of scAb capture. Three start-up cycles were used followed by 5 increasing concentrations of the analyte (6.25 nM-100 nM) for an association period of 120 s followed by a dissociation period of 420 s for each concentration. In single cycle kinetics the regeneration step was performed only after the final analyte concentration was added. Binding responses were analysed in Biacore X100 evaluation software and data fitted to a 1:1 binding model to obtain kinetic and affinity characterisation.
In general terms: Surface plasmon resonance follows binding to a sensor surface in real time, without labels.

A further experiment deals with dGAE (Homo sapiens, UniProt P10636). Briefly: Biacore X100 SPR binding kinetics of anti-tau scAbs (scAb captured via HuCk), analyte dGAE. The conditions noted are these: lead scAbs. How it is done:
as §1, §2
as §3, with “Following three start-up cycles increasing concentrations (0.15625 nM-100 nM) of the target to be tested were added to the chip surface after the desired scAb capture. The target was added for a 120 s association period and 420 s dissociation period followed by another regeneration, 30 s injection of glycine buffer pH 2.0 in between each cycle.” left out
The single cycle kinetics protocol was similar and utilised the same level of scAb capture. […] Binding responses were analysed in Biacore X100 evaluation software and data fitted to a 1:1 binding model to obtain kinetic and affinity characterisation.

Chain of dGAE (P10636 614-708): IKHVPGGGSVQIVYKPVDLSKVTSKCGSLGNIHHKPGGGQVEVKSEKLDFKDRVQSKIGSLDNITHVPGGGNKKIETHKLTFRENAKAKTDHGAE
Chain of dGA (P10636 614-707): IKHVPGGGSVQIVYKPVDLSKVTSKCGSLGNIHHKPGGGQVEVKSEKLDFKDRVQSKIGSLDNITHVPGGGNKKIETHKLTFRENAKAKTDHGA

B1: S1D12: anti-tau binding molecule defined by its CDRs; scAb sequence SEQ ID NO: 32 (protein)
scFv: QVQLQESGPSLVKPSQTLSLTCTVSGFSLNNNAVGWVRQAPGKVPESLVGCSSDGTCYYNSALKSRLDITRDTSKNQISLSLSSVTTDDAAVYYCTRGHYSIYGYDYLGTIDYWGPGLLVTVSSEGKSSGASGESKVDDQAVLTQPSSVSGSLGQRVSITCSGSSSNVGGGNSVGWYQHLPGSGLKTIIYDTNSRPSGVPDRFSGSRSGNTATLTINSLQAEDEGDYYCVTGDSTTHDDLVGSGTRLTVLG
modifications: S1D12 amino acid sequence
With B1, the Western blot reactivity result with tau is “A band is detected in each sample (WT, L66^+/+ and L1^+/+)”. For the same molecule, in the experiment on core region tau (30 mg/kg i.p. once per week for six weeks, CA4-S1G2 Simoa), the “plasma tau, L66+/+ mice with S1D12 treatment” value is given as 3.52 (0.20) ng/ml. In addition, in the experiment on core region tau (CA4-S1G2 pairing, n=5 or 6), the “increase of core region tau in plasma vs vehicle group, L1” value is “more than 100 fold”; the “increase of core region tau in plasma vs vehicle group, L66” value is reported as “more than a threefold increase”; the “increase of core region tau in plasma vs vehicle group, wild-type” value is given as “less than a two-fold increase”. In the experiment with dGA (Table 24), this molecule gave a ka of 1.21e+06 M⁻¹ s⁻¹. For the same molecule, the “dissociation rate constant (kd)” value in the experiment with dGA (Table 24, dissociation rate) turned out to be 0.000418 s⁻¹.

B2: E1E8: anti-tau clone, SEQ ID NO: 250 (protein)
scFv: QVQLQESGPSLVKPSQTLSLTCTVSGFSLTDWGVAWVRQAPGKALEWLGTMRSGGTTDDNPALKSRLSITRDTSKSQVSLSLSSVTTEDMAMYYCARGYLSGVHYAWGRGLLVTVSSEGKSSGASGESKVDDQAVLTQPSSVSGSLGQSVSITCSGSSSNVGDGRYVSWFQQVPGSAPKLLIYDTTSRASGVPDRFSGSRSGNTATLIITSLQAEDEADYYCASIDSGNNLLFGSGTRLTVLG
modifications: E1E8 amino acid sequence
Molecule B2 registered a ka in the experiment with dGAE (Table 24) of 153500 M⁻¹ s⁻¹. In the experiment with dGAE (Table 24, dissociation rate), the “dissociation rate constant (koff)” value turned out to be 0.0014 s⁻¹.
